The experiment concerns the target ΔIBB-importin α1 (as used for ITC) (mouse), P52293. In words: ITC; nano-ITC, 20 °C; GST-RCC1 (300 µM) injected in 2.0 µl increments into 195 µl of ΔIBB-importin α3 or α1 (100 µM); 20 mM Tris-HCl pH 8.0, 150 mM NaCl, 5 mM BME, 0.1 mM PMSF; single set of binding sites model; triplicate. The following applies: remark: other sources report otherwise. On the technique in general: ITC needs no label: the signal is the heat of the interaction.

Bounds are passed on as bounds.

1 molecule from paper PMC5645467 can be followed below.

B1: GST-RCC1 (full-length human RCC1, wild type), P18754 1-421 (natural protein)
chain: MSPKRIAKRRSPPADAIPKSKKVKVSHRSHSTEPGLVLTLGQGDVGQLGLGENVMERKKPALVSIPEDVVQAEAGGMHTVCLSKSGQVYSFGCNDEGALGRDTSVEGSEMVPGKVELQEKVVQVSAGDSHTAALTDDGRVFLWGSFRDNNGVIGLLEPMKKSMVPVQVQLDVPVVKVASGNDHLVMLTADGDLYTLGCGEQGQLGRVPELFANRGGRQGLERLLVPKCVMLKSRGSRGHVRFQDAFCGAYFTFAISHEGHVYGFGLSNYHQLGTPGTESCFIPQNLTSFKNSTKSWVGFSGGQHHTVCMDSEGKAYSLGRAEYGRLGLGEGAEEKSIPTLISRLPAVSSVACGASVGYAVTKDGRVFAWGMGTNYQLGTGQDEDAWSPVEMMGKQLENRVVLSVSSGGQHTVLLVKDKEQS
The term Kd denotes the free concentration of one partner at which half of the binding sites on the other are occupied at equilibrium, for simple one-to-one binding. A high value points to weaker binding. A word on the stoichiometry N: it is the number of molecules, sites or subunits per partner or assembly. For B1, the Kd is 5.4 µM and the stoichiometry N was under 1.
